Each block holds one binder with its values, some of them ahead of it.
B3: GST-CHIP (carboxyl terminus of Hsp70 interacting protein, full length) (enzyme, human, UniProt Q9UNE7 1-303, looked up)
chain: MKGKEEKEGGARLGAGGGSPEKSPSAQELKEQGNRLFVGRKYPEAAACYGRAITRNPLVAVYYTNRALCYLKMQQHEQALADCRRALELDGQSVKAHFFLGQCQLEMESYDEAIANLQRAYSLAKEQRLNFGDDIPSALRIAKKKRWNSIEERRIHQESELHSYLSRLIAAERERELEECQRNHEGDEDDSHVRAQQACIEAKHDKYMADMDELFSQVDEKRKKRDIPDYLCGKISFELMREPCITPSGITYDRKDIEEHLQRVGHFDPVTRSPLTQEQLIPNLAMKEVIDAFISENGWVEDY

Assays:
[1] = biological target: B3; experiment: NMR titration
[2] = biological target: T1, Tau 2N4R isoform (full-length Tau) (human, UniProt P10636-8 1-441); experiment: ITC
[3] = biological target: T1, Tau 2N4R isoform (full-length Tau); experiment: NMR titration

binding result [1]: binds
B1: Tau1-152 (domain or fragment, human, UniProt P10636-8 1-152, looked up)
chain: MAEPRQEFEVMEDHAGTYGLGDRKDQGGYTMHQDQEGDTDAGLKESPLQTPTEDGSEEPGSETSDAKSTPTAEDVTAPLVDEGAPGKQAAAQPHTEIPEGTTAEEAGIGDTPSLEDEAAGHVTQARMVSKSKDGTGSDDKKAKGADGKTKIA

Kd [2]: 360 µM
B2: isolated TPR domain of CHIP (domain or fragment, human)
chain: EKSPSAQELKEQGNRLFVGRKYPEAAACYGRAITRNPLVAVYYTNRALCYLKMQQHEQALADCRRALELDGQSVKAHFFLGQCQLEMESYDEAIANLQRAYSLAKEQRLNFGDDIPSALRIAKKKRWNSIEERR

Binder: B3
Kd [3]: 14 µM

Source: article PMC9303552 (Angewandte Chemie (International Ed. in English), 2022)
